One may read the Kd as the free concentration of one partner at which half of the binding sites on the other are occupied at equilibrium, for simple one-to-one binding. Read a high Kd as weaker binding.

Residue numbers refer to the chain shown, from its start.

Results on 18 molecules are retold here after patent US20250313612A1 (Adimab, published 2025).

B1: ADI-14522 (antibody, V domains shown)
VH: EVQLVESGAEVKKPGDSVKVSCRASGYSFTGPFLHWVRQAPGQRLEHMGWINPRSGETKYAQSFLGRVTMTRDTSIRSATLELSSLRSDDTAVYYCARDLYSSGWLDNWGQGTLVTVSS
VL: ETTLTQSPATLSVSPGERATLSCRASQGLSSNLAWYQHKPGQAPRLLVYGVATRATGVPARFSGSGSGTEFTLTISSLQSDDFALYYCHQYNDWPYTFGQGTKLEIK
notes: full-length IgG (yeast-expressed); also called Antibody Number 82; Ab# 82
B2: ADI-14478 (antibody, V domains shown)
VH: EVQLVESGGGLVKPGGSLRLSCAASGFTFSDYYMSWIRQAPGKGLEWVSYISISSSYTDYADSVKGRFTISRDNAKNSLYLQMNSLRAEDTAVYYCARDQRDQAVAGRWFDPWGQGTLVTVSS
VL: QSVVTQPPSVSGAPGQRVTISCTGSSSNIGAGFDVHWYQQVPGTAPKLLIYANTNRPSGVPDRFSGSKSGTSASLAITGLKAEDEADYYCQSYDNSLSGSAVFGGGTKVTVL
B3: ADI-14463 (antibody, V domains shown)
VH: QVQLVQSGTEVKKPGASVKVSCKASGYIFDHFAITWVRQAPGQGPEWMGWISAYNGRTEDSGKFPGRLTLTTDPATRTAFLELRGLTPDDTAVYYCARDVPVMGAAFLDYWGQGTLVTVSS
VL: EIVLTQSPLSLPVTVGQPASISCRSGQSLEFSDGNTYLTWFHQRPGQSPRRLIYRGSYRDSGVPDRFRGSGSGTTFTLTISRVEAEDVGIYFCMQGTHWPPTFGQGTKVDIK
B4: ADI-14474 (antibody, V domains shown)
VH: QVQLVQSGPEVKKPGASVTISCQASGYIFNHYSITWVRQAPGQGTEWMGWISAYHGKTEYSGKFHGRVTLTTDTGTRTAFLELRDLTSDDTAIYYCARDVPVMGAAFLDYWGQGTLVTVSS
VL: B3 VL with V15L, H42Q, Y54F, D65E, R68S, T75S, V109L, D110E
B5: ADI-14487 (antibody, V domains shown)
VH: QVQLVQSGAEVKKPGASVRVSCKASGYTFSSYYIHWVRQAPGQGPEWLGWINPKSGDTIYSYKFQGRVTLTRETSITTAYMELTSLRSDDTAVYYCARVTWQWLVLGGFDYWGQGTLVTVSS
VL: DIVLTQSPLSLPVTPGEPASISCRSSLSLLHSNGDNYLDWYLQKPGQSPQLLIYLGSNRASGVPDRFSGSGSGTDFTLKISRVEAEDVGVYYCMQALHTPLTFGGGTKLEIK
B6: ADI-14480 (antibody, V domains shown)
VH: QVQLVQSGAEVKKPGSSMSISCRASGGSFNNQAIHWIRQAPGEGLEWMGNIIPNFGSQNYAPEFVGRVSFNADASAGTAYMDLSDLTSQDTAVYYCATAGWFGELVRFDSWGQGTLVTVSS
VL: DIVMTQSPATLSVSPGGRATLSCRASETITTNLAWYQQKPGQAPRLLIYGASTRATGIPARFSGSGSGTEFTLTINSLQSEDFAVYYCQQYNNWPPLTFGGGTKLEIK
B7: ADI-14482 (antibody, V domains shown)
VH: QVQLQQWGAGLVKPSETLSLTCAVSGGSFRGYQWNWFRQPPGKGLEWIGEINHGEYTHYNASLKSRVSLSIDTSKNQFSLNLTSVTAADTAMYFCARASSGTYNFEYWFDPWGQGTLVTVSS
VL: SYVLTQPPSVSVAPGKTAWLTCGGNNIGNKRVHWYQQKPGQAPVLVVYDDYGRPSGTSERVSGSNSGNTATLTISRVEAGDEAEYYCQVWDDPSDHAVFGGGTQLTVL
B8: ADI-14488 (antibody, V domains shown)
VH: EVQLVESGGGLVQPGGSLKLSCTSSGLAFSGSAIHWVRQASGKGLEWVGRIRSKPNSYATEYAASVKGRFTISRDDSQNTAYLQMNSLKAEDTALYYCTLGYCSGDSCSSLRDYWGQGTLVTVSS
VL: QSALIQPASVSGSPGQSITISCTGTSSDVGGYNYVSWYQQHPGKAPKLMIYDVSNRPSGVSNRFSGSKSGNTASLTISGLQAEDEADYYCSSYTSSSTLVFGGGTKVTVL
B9: ADI-14483 (antibody, V domains shown)
VH: QVQLVQSGGRLVKPGGSLRLSCGMSGFGFSSYRMNWVRQAPGKGLEWISSISASSSYTDYANSVKGRFTISRDGANLFLQMNSLRVEDTAVYYCARDWGGHSIFGAVQDLWGQGTLVTVSS
VL: QSVLTQPPSVSGAPGQRVTISCSGSSSNIGAGYDVHWYQQLPGTAPKLLIYGNTNRPSGVPDRFSGSKSGTSASLAITGLQAEDEADYYCQSYDRSLSQVFGAGTKVTVL
notes: full-length IgG (yeast-expressed); also called Antibody Number 44; Ab# 44
B10: ADI-14490 (antibody, V domains shown)
VH: QVQLVQSGGGVVQPGRSLRLSCAASGFTFSNYGMHWVRQAPGKGLEWVAVIWYDGSNKYYADSVKGRFTISRDNSKNTVYLQMNSLRADDTAVYYCARDAIFGSGPNWFDPWGQGTLVTVSS
VL: QSVLTQPPSVSGAPGQRVTISCTGSSSNIGAGYDVHWYQQLPGTAPKLLIYGSSNRPSGVPDRFSGSKSGTSASLAITGLQAEDEADYYCQSYESSLRGWVFGGGTKVTVL
B11: ADI-14479 (antibody, V domains shown)
VH: QVQLVQSGSEVKQPGASVKVSCKASGYTFSAYHLHWVRQAPGQGLQWLGRINPNSGATSVAHNFQGRVTLTTDTSISTAYMELSSLTSDDSAVYYCARTMWRWLVEGGFENWGQGTLVTVSS
VL: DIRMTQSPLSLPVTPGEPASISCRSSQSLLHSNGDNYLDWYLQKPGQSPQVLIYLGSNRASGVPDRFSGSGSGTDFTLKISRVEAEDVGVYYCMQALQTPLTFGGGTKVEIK
B12: ADI-14503 (antibody, V domains shown)
VH: QVQLVQSGGGLVKPGGSLRLSCAASGFSLTNYRMNWVRQAPGKGLEWVSSLKDSSSYIYYADSVKGRFTVSRDDAKNSFFLQMTNVRAEDTAVYYCAREGSDTEYWRLTPPMDVWGNGTTVTVSS
VL: QSVLTQPPSVSVAPRQTARITCGEHNIGTKSVHWYQQKPGQAPVLVIYDDSDRPSGIPARFSGSNSGNTATLTISWVEAGDEAVYYCQVWDSGDHPWLFGGGTQLTVL
notes: full-length IgG (yeast-expressed); also called Antibody Number 64; Ab# 64
B13: ADI-14465 (antibody, V domains shown)
VH: QVQLLESGAGLLKPSETLSLTCSLSGGSFRDFYWAWIRQAPGRGLEWIGDINDGGNTNHSPSLKSRAILSIDASKRQFSLRLTSVTAADTAVYYCARQRLEHTASGYYMDVWGNGTTVTVSS
VL: QSVLTQPPSVSVDPGETATITCGGANIGSKNVYWYQQRPGQAPVLVVYDDIDRPAGIPDRFTDSSSGNTVTLTIYSVEAVDEADYFCQVWDNSSDQPVFGGGTKLTVL
B14: ADI-14467 (antibody, V domains shown)
VH: EVQLLESGSEVKKPGTSVKVSCETSGYIFTNYAISWVRQAPGQGLEWLGWISGYNGQTYYAQKVQGRLTLTTDTSTMTAYMDLTSLRSDDTAIYYCVRDVPVISGASTMDYWGQGTLVTVSS
VL: DIVMTQSPLSLPVTHGQPASISCRSSQSLVYSDGNTYLSWFQLRPGQSPRRLIYKVSNRDSGVPDRFSGSGSGTDFTLKISRVEAEDVGVYYCMQATQWPRTFGQGTKVEIK
B15: ADI-14462 (antibody, V domains shown)
VH: QVQLVQSGGGVVQPGGSLRLSCAAYGLTFRAYGMHWVRQAPGKGLEWVAVSWYDGTNEVYADSVKGRFRISRDDSRSTLYLQMNSLRGEDTAVYYCATERMWEENSSSFGWWGRGTLVTVSS
VL: QAVLTQPASVSGSPGQSITISCTGSSSDVGGSNFVSWYQQHPGKAPKLMVYDVNHRPSGISNRFSGSKSGNTASLTISGLQAEDEADYYCTSYTSRSSYVFGSGTKVTVL
B16: ADI-14441 (antibody, V domains shown)
VH: QVQLVQSGAEVKKPGSSVKISCKASGGTFNSQAIHWVRQAPGQDLEWMGNIIPGFGSPNSAQNFQGRVTFIADDSTGAAYMDLSSLKSEDTAVYYCATAGWFGESVHLDSWGQGTLVTVSS
VL: not shown
B17: ADI-14473 (antibody, V domains shown)
VH: QVQLVQSGAEVKKPGEPLRISCKGSGYTFTSYWISWVRQMPGTGLEWMGRIDPSDSYTYSSPSFQGHVTISVDKSISTAYLQWSSLKASDTAIYYCARHKENYDFWDFWGQGTLVTVSS
VL: ETTLTQSPDSLAVSLGERATINCKSSQTIFFNSNNKISLAWYQQKPGQPPKLLISWASTRESGVPDRFSGSGSGTDFTLTISSLQPEDVAVYFCQQYYSSAFFGPGTRLEIK
notes: full-length IgG (yeast-expressed); also called Antibody Number 35; Ab# 35
B18: ADI-14486 (antibody, V domains shown)
VH: QVQLQESGPGLVKPSETLSLTCTVSGGSINNYFWSWIRQPPGKGLEWLGYIYNSGSTYYNPSLNSRVTISLQKSKNQFSLHLTSMTAADTAVYFCARHPSVIYGTFGANGGPNWFDPWGQGTLVTVSS
VL: QSVLTQPASVSGSPGQSITISCTGTSSDVGGYNYVSWYQQHPGKAPKLMIFDVTYRPSGISNRFSGSKSGNTASLTISGLHSEDEADYYCSSYTGSNTVIFGGGTKLTVL
notes: full-length IgG (yeast-expressed); also called Antibody Number 47; Ab# 47

One assay deals with RSV F protein of recombinant mKate-RSV, subtype B (18537) (Respiratory syncytial virus subtype B …, UniProt P13843 26-574). Nature of the assay: cell-based or functional assay.
In the case of B1, the “Neut IC50 subtype B” value came out at 7.29 µg/mL.

In the case of B2, the “Neut IC50 subtype B” value was determined as 0.057 µg/mL.

As for B3, the “Neut IC50 subtype B” value was determined as 0.036 µg/mL.

Take B4: the “Neut IC50 subtype B” value turned out to be 0.016 µg/mL.

Take B5: the “Neut IC50 subtype B” value is more than 10 µg/mL.

As to B6, the “Neut IC50 subtype B” value turned out to be 2.76 µg/mL.

As for B7, the “Neut IC50 subtype B” value is 0.031 µg/mL.

For the molecule B8, the “Neut IC50 subtype B” value is more than 10 µg/mL.

For B9, the “Neut IC50 subtype B” value came to 0.03 µg/mL.

In the case of B10, the “Neut IC50 subtype B” value was found to be 0.113 µg/mL.

B11: the “Neut IC50 subtype B” value is 22.7 µg/mL.

As to B12, the “Neut IC50 subtype B” value worked out at 0.026 µg/mL.

Regarding B13, the “Neut IC50 subtype B” value came to 0.124 µg/mL.

As to B14, the “Neut IC50 subtype B” value came out at 0.065 µg/mL.

Turning to B15, the “Neut IC50 subtype B” value is 2.63 µg/mL.

B16: the “Neut IC50 subtype B” value was found to be 3.92 µg/mL.

A further assay has as its target RSV F protein of recombinant mKate-RSV, subtype A (strain A2) (Respiratory syncytial virus subtype A …, UniProt P03420 26-574). The assay is described as follows: cell-based or functional assay.
Consider B1, for which the “Neut IC50 subtype A” value stood at 3.53 µg/mL.

In the case of B2, the “Neut IC50 subtype A” value was determined as 0.163 µg/mL.

As for B3, the “Neut IC50 subtype A” value was determined as 0.009 µg/mL.

For B4, the “Neut IC50 subtype A” value was 0.019 µg/mL.

As for B5, the “Neut IC50 subtype A” value is more than 10 µg/mL.

For the molecule B6, the “Neut IC50 subtype A” value was more than 10 µg/mL.

Take B7: the “Neut IC50 subtype A” value was found to be 0.024 µg/mL.

As to B8, the “Neut IC50 subtype A” value was more than 10 µg/mL.

Consider B9, for which the “Neut IC50 subtype A” value was found to be 0.031 µg/mL.

Take B10: the “Neut IC50 subtype A” value worked out at 1.02 µg/mL.

In the case of B11, the “Neut IC50 subtype A” value amounted to 4.09 µg/mL.

For B12, the “Neut IC50 subtype A” value was found to be 0.016 µg/mL.

With B13, the “Neut IC50 subtype A” value amounted to 0.431 µg/mL.

For the molecule B14, the “Neut IC50 subtype A” value is 0.06 µg/mL.

Consider B15, for which the “Neut IC50 subtype A” value is 2.71 µg/mL.

On to B16, for which the “Neut IC50 subtype A” value is more than 10 µg/mL.

The next assay deals with T1, RSV F ectodomain stabilized in the postfusion conformation (F ΔFP), subtype A (Respiratory syncytial virus subtype A, UniProt P03420 26-109; P03420 147-524).
T1 construct: extracellular domain; trimer; furin-cleaved; also called Postfusion subtype A
Nature of the assay: BLI, IgG on AHQ sensor, 100 nM antigen. (In general: BLI is a label-free optical method that tracks binding on a fibre tip over time.)
In turn, B17 displayed a Kd of 224 pM.

B12 displayed a Kd of 26100 pM.

Take B18: the affinity, expressed as Kd, was 529 pM.

The target of another assay is T2, RSV F ectodomain stabilized in the postfusion conformation (F ΔFP), subtype B (Respiratory syncytial virus subtype B, UniProt P13843 26-109; P13843 147-524).
T2 construct: extracellular domain; trimer; also called Postfusion subtype B; postF subtype B
Nature of the assay: BLI, IgG on AHQ sensor, 100 nM antigen.
As for B1, the Kd was determined as 1060 pM.

Consider B17, for which the Kd came to 151 pM.

B9 displayed a dissociation constant (Kd) of 20000 pM. Compared with the last molecule, the Kd is about 130-fold higher.

B18 had a Kd of 636 pM.
